Test results as given in patent US7569390 (MEDICAL RESEARCH COUNCIL, dated 2009).

Biological target: T1, Syk/BTM116 (LexA-Syk bait) (E. coli, UniProt P48025 1-629)
T1 construct: also called pLexA-Syk; not shown: E. coli LexA domain of vector pBTM116
Test: yeast two-hybrid (L40), β-galactosidase assay; FIG. 2B row 2, empty pVP16 control

T1 sequence (P48025 whole entry, the tested form may be a part): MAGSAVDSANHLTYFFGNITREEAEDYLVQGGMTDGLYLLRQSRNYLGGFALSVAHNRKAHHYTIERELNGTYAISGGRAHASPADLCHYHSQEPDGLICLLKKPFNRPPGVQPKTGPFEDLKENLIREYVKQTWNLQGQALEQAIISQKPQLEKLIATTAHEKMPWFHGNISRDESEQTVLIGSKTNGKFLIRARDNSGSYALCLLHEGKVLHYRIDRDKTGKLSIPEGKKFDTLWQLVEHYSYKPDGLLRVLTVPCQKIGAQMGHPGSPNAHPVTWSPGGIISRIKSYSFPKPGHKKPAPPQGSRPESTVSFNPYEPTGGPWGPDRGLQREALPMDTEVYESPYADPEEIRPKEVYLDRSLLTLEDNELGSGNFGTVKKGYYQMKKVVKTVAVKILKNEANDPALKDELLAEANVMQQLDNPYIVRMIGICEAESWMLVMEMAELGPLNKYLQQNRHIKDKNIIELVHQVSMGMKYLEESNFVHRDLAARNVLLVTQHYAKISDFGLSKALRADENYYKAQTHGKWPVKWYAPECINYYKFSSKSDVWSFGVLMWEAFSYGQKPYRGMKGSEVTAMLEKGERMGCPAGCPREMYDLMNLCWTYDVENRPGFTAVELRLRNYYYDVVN

B1: VP16 vector alone (pVP16, no scFv insert) (other)
chain: STAPPTDVSLGDELHLDGEDVAMAHADALDDFDLDMLGDGDSPGPGFTPHDSAPYGALDMADFEFEQMFTDALGIDEYGG
notes: also called empty pVP16 vector
binding result: no binding
